The target in data set [1] is T1, Recombinant human RAD51 (residues 21-339, C-terminal Leu-Glu-His6) (human, UniProt Q06609 21-339).
T1 chain: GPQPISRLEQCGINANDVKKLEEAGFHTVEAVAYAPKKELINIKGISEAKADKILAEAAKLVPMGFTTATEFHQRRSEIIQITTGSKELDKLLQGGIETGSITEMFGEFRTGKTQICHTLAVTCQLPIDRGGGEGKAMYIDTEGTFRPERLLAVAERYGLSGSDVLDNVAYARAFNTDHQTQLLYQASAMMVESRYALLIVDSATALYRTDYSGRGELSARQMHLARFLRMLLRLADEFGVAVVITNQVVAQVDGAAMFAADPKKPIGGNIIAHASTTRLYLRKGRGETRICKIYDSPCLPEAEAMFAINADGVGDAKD
Put plainly: BLI. (Biolayer interferometry detects binding as a change in optical thickness at a sensor tip.)

The target in data set [2] is T2, Recombinant human RAD51 (residues 21-339, C-terminal Leu-Glu-His6) (Homo sapiens, UniProt Q06609).
T2 construct: RAD51, Homo sapiens, residues 21-339, inserted between the NcoI and XhoI sites of pET28a; Cloning at the NcoI site may add a start methionine; also called purified RAD51; plasmid-expressed RAD51; source: E. coli Rosetta(DE3), pET28a-RAD51, purified (ammonium sulfate, DE52 anion exchange, HiTrap Ni-chelating column); also in E. coli whole cell lysate
Nature of the data set: BLI; Fab (about 0.5 nm) immobilised on Protein L biosensors, range of RAD51 concentrations in solution; 25 °C, PBS pH 7.4 with 0.1% Tween 20 and 10 mg/mL BSA; global fit, 1:1 Langmuir model, reference well subtracted. As to conditions: both partners purified.

Data set [3] has as its target T2, Recombinant human RAD51 (residues …). Nature of the data set: cell-based or functional assay.
Another data set addresses RAD51 (Homo sapiens, UniProt Q06609 21-339). Put plainly: BLI; no Fab-F2; 1:1 Langmuir global fit; BLI on streptavidin biosensors; 0.5 uM RAD51 for the inhibition assay; buffer, salt, pH and temperature not given in the material (RAD51 dialyzed into PBS). The following applies: protein: recombinant; label: 5'-biotin; single strand.

B1: Fab-F2-iPTD (Fab, V domains shown)
VH: EVQLVESGGGLVQPGGSLRLSCAASGFTFSSYGMHWVRQAPGKGLEWVAVISYDGSNKYYADSVKGRFTISADTSKNTAYLQMNSLRAEDTAVYYCARTYSYASRGWYDYWGQGTLVTVSS
VL: DIQMTQSPSSLSASVGDRVTITCRASQGISNYLAWYQQKPGKAPKLLIYAASSLQSGVPSRFSGSRSGTDFTLTISSLQPEDFATYYCQQGTYLPLTFGQGTKVEIK
notes: as the heavy chain of m2; as the light chain of m2; also called cell-penetrating Fab-F2-iPTD; source: E. coli, pCW-Fab-F2-iPTD, purified
Consider B1, for which the koff (in general, the first-order rate constant of dissociation) in data set [1] worked out at 0.000658 s⁻¹. Moreover, in data set [2], the Kd (usually the concentration at which binding is half-saturated) worked out at 18.2 nM; the “koff, fold lower than for Fab-F2” value is roughly 2 fold; the “kon, fold lower than for Fab-F2” value was roughly 2 fold.

B2: Fab-F2 (Fab, V domains shown)
VH: EVQLVESGGGLVQPGGSLRLSCAASGFTFSSYGMHWVRQAPGKGLEWVAVISYDGSNKYYADSVKGRFTISADTSKNTAYLQMNSLRAEDTAVYYCARTYSYASRGWYDYWGQGTLVTVSS
VL: DIQMTQSPSSLSASVGDRVTITCRASQGISNYLAWYQQKPGKAPKLLIYAASSLQSGVPSRFSGSRSGTDFTLTISSLQPEDFATYYCQQGTYLPLTFGQGTKVEIK
notes: Human IgG1 synthetic Fab from phage Library S (randomised CDRL3 and CDRH3, canonical other CDRs); In the Western blots the Fab was labelled with IRDye 800CW; also called IRDye 800CW-labeled Fab-F2; source: also in small-scale E. coli lysate
For the molecule B2, in data set [2], the Kd worked out at 8.1 ± 0.21 nM; the koff worked out at 0.000156 s⁻¹; the kon (as a rule, the rate constant with which the complex forms) came to 19300 M⁻¹ s⁻¹. In addition, in data set [3], the “inhibition of RAD51 (500 nM, pre-incubated with various concentrations of Fab-F2) binding to immobilised 5'-biotinylated oligo(dT)36 ssDNA, by BLI; IC50” value was less than 125 nM.
Regarding TTTTTTTTTTTTTTTTTTTTTTTTTTTTTTTTTTTT (ssDNA) [oligo(dT)36], the Kd with RAD51 turned out to be 27.6 ± 4.75 nM.

These data come from article PMC6677837, “A Novel Cell-Penetrating Antibody Fragment Inhibits the DNA Repair Protein RAD51” (Scientific Reports, 2019).
